The record followed here is patent US20240400671A1 (LANIER BIOTHERAPEUTICS, published 2024).

The target in the experiment is T1, recombinant human IL-25 (R&D Systems) (human, UniProt Q9H293 33-177).
T1 sequence (looked up): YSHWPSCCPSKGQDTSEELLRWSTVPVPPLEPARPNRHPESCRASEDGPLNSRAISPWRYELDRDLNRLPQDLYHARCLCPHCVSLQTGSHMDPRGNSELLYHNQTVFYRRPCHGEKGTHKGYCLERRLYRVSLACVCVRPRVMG
The experiment is described as follows: cell-based or functional assay.

B1: ABM125 (Chimera) (antibody, V domains shown)
VH: QVTLKVSGPGILQPSQTLSLTCSFSGFSLNTSGMGVGWIRQPSGKGLEWLAHIWWDDVKRYNPALKSRLTISKDTSGSQVFLKIASVDTADTATYYCARTLPHFFDYWGQGTTLTVSS
VL: DIQMTQSPAIMSASPGEKVTISCRASSSVSYMYWYQQKSGSSPKPWIYRTSNLASGVPARFSGSGSGTSYSLTISSMEAEDAATYYCKQYHSYPPTWTFGGGTKLEIKR
modifications: N-glycosylation site in heavy chain CDR1 created by S29N, confirmed biophysically
As a reminder, the IC50 is the concentration at which inhibition is half-maximal. B1: the “IC50” value was 0.18 µg/mL.

B2: hABM125.34 (antibody, V domains shown)
VH: QVTLKESGPTLVKPTQTLTLTCTFSGFSLSTSGMGVGWIRQPPGKALEWLAHIWWDDVKRYNPSLKSRLTITKDTSGSQVVLTMTNMDPVDTATYYCARTLPHFHDYWGQGTTLTVSS
VL: DIQMTQSPSTLSASVGDRVTITCRASSSVSYMYWYQQKPGKAPKPLIYRTSNLASGVPSRFSGSGSGTEYTLTISSLQPDDFATYYCKQYHSYPPTWTFGGGTKLEIKR
With B2, the “IC50” value is 0.22 µg/mL.
